Data taken from patent US20250320281A1.

Columns and labels:
Assay in all cases: cell-based or functional assay
[1] = biological target: HIV-1 92BR020 envelope glycoprotein (Env) on pseudovirus (HIV-1)
[2] = biological target: HIV-1 94UG103 envelope glycoprotein (Env) on pseudovirus (HIV-1)
[3] = biological target: HIV-1 92UG005 envelope glycoprotein (Env) on pseudovirus (HIV-1)
[4] = biological target: HIV-1 CMU02 envelope glycoprotein (Env) on pseudovirus (HIV-1)
[5] = biological target: HIV-1 MGRM-A-010 envelope glycoprotein (Env) on pseudovirus (HIV-1)
[6] = biological target: HIV-1 MGRM-C-027 envelope glycoprotein (Env) on pseudovirus (HIV-1)
[7] = biological target: HIV-1 93UG077 envelope glycoprotein (Env) on pseudovirus (HIV-1)
[8] = biological target: HIV-1 92UG024 envelope glycoprotein (Env) on pseudovirus (HIV-1)
[9] = biological target: HIV-1 JRFL envelope glycoprotein (Env) on pseudovirus (HIV-1)
[10] = biological target: HIV-1 NL43 envelope glycoprotein (Env) on pseudovirus (HIV-1)
[11] = biological target: HIV-1 MGRM-D-018 envelope glycoprotein (Env) on pseudovirus (HIV-1)
[12] = biological target: HIV-1 92TH021 envelope glycoprotein (Env) on pseudovirus (HIV-1)
[13] = biological target: HIV-1 MGRM-C-026 envelope glycoprotein (Env) on pseudovirus (HIV-1)
[14] = biological target: HIV-1 APV6 envelope glycoprotein (Env) on pseudovirus (HIV-1)
[15] = biological target: HIV-1 APV17 envelope glycoprotein (Env) on pseudovirus (HIV-1)
[16] = biological target: HIV-1 93IN905 envelope glycoprotein (Env) on pseudovirus (HIV-1)
[17] = biological target: HIV-1 JRCSF envelope glycoprotein (Env) on pseudovirus (HIV-1) (UniProt P20871)
[18] = biological target: HIV-1 MGRM-AG-005 envelope glycoprotein (Env) on pseudovirus (HIV-1)
[19] = biological target: HIV-1 APV13 envelope glycoprotein (Env) on pseudovirus (HIV-1)
[20] = biological target: HIV-1 MGRM-C-028 envelope glycoprotein (Env) on pseudovirus (HIV-1)
[21] = biological target: HIV-1 MGRM-D-001 envelope glycoprotein (Env) on pseudovirus (HIV-1)
[22] = biological target: HIV-1 92RW020 envelope glycoprotein (Env) on pseudovirus (HIV-1)
[23] = biological target: aMLV envelope on pseudovirus (negative control virus)

B1: PGT-136 (5329_C19; 5366_P21) human monoclonal anti-HIV-1 antibody (antibody, V domains shown)
VH: QLQLQESGPGLVKPSETLSLTCTVSGGSMRGTDWGENDFHYGWIRQSSAKGLEWIGSIHWRGRTTHYKTSFRSRATLSIDTSNNRFSLTFSFVTAADTAVYYCARHKYHDIFRVVPVAGWFDPWGQGLLVTVSS
VL: EIVMTQSPPTLSVSPGETATLSCRASQNVKNNLAWYQLKPGQAPRLLIFDASSRAGGIPDRFSGSGYGTDFTLTVNSVQSEDFGDYFCQQYEEWPRTFGQGTKVDIK
0.0135 µg/mL: neutralization IC50 [16]
0.0285 µg/mL: neutralization IC80 [13]
0.159 µg/mL: neutralization IC95 [13]
0.0915 µg/mL: neutralization IC50 [8]
0.0623 µg/mL: neutralization IC80 [16]
0.379 µg/mL: neutralization IC95 [16]
5.97 µg/mL: neutralization IC95 [8]
> 10 µg/mL: neutralization IC50 [1] | neutralization IC80 [1] | neutralization IC90 [1] | neutralization IC95 [1] | neutralization IC50 [2] | neutralization IC80 [2] | neutralization IC90 [2] | neutralization IC95 [2] | neutralization IC50 [3] | neutralization IC80 [3] | neutralization IC90 [3] | neutralization IC95 [3] | neutralization IC50 [4] | neutralization IC80 [4] | neutralization IC90 [4] | neutralization IC95 [4] | neutralization IC50 [5] | neutralization IC80 [5] | neutralization IC90 [5] | neutralization IC95 [5] | neutralization IC50 [6] | neutralization IC80 [6] | neutralization IC90 [6] | neutralization IC95 [6] | neutralization IC50 [7] | neutralization IC80 [7] | neutralization IC90 [7] | neutralization IC95 [7] | neutralization IC50 [9] | neutralization IC80 [9] | neutralization IC90 [9] | neutralization IC95 [9] | neutralization IC50 [10] | neutralization IC80 [10] | neutralization IC90 [10] | neutralization IC95 [10] | neutralization IC50 [11] | neutralization IC80 [11] | neutralization IC90 [11] | neutralization IC95 [11] | neutralization IC50 [12] | neutralization IC80 [12] | neutralization IC90 [12] | neutralization IC95 [12] | neutralization IC50 [14] | neutralization IC80 [14] | neutralization IC90 [14] | neutralization IC95 [14] | neutralization IC50 [15] | neutralization IC80 [15] | neutralization IC90 [15] | neutralization IC95 [15] | neutralization IC50 [17] | neutralization IC80 [17] | neutralization IC90 [17] | neutralization IC95 [17] | neutralization IC50 [18] | neutralization IC80 [18] | neutralization IC90 [18] | neutralization IC95 [18] | neutralization IC50 [19] | neutralization IC80 [19] | neutralization IC90 [19] | neutralization IC95 [19] | neutralization IC50 [20] | neutralization IC80 [20] | neutralization IC90 [20] | neutralization IC95 [20] | neutralization IC50 [21] | neutralization IC80 [21] | neutralization IC90 [21] | neutralization IC95 [21] | neutralization IC80 [22] | neutralization IC90 [22] | neutralization IC95 [22] | neutralization IC50 [23] | neutralization IC80 [23] | neutralization IC90 [23] | neutralization IC95 [23]
0.156 µg/mL: neutralization IC90 [16]
0.738 µg/mL: neutralization IC50 [22]
1.96 µg/mL: neutralization IC90 [8]
0.0687 µg/mL: neutralization IC90 [13]
0.0065 µg/mL: neutralization IC50 [13]
0.619 µg/mL: neutralization IC80 [8]
